Reference: PMC10504179

B1: single nicked 40 nt dsDNA (Template T + N1 + N2) (dsDNA)
DNA 1: ATTGAGTGGACAAAGTATCGTAGGGTAGTATTGGTGGATA
DNA 2: TATCCACCAATACTACCCTA
DNA 3: CGATACTTTGTCCACTCAAT
modifications: none; 5' end at nick not phosphorylated
B2: 1 nt gapped 40 nt dsDNA (Template T + G1 + G2) (dsDNA)
DNA 1: B1 DNA 1
DNA 2: TATCCACCAATACTACCCTAC
DNA 3: ATACTTTGTCCACT
modifications: none; 5' end at gap not phosphorylated
B3: single nick with 10 nt 5'-flap 40 nt dsDNA (Template T + F1 + N2) (dsDNA)
DNA 1: B1 DNA 1
DNA 2: TATCCACCAATACTACCCTA
DNA 3: TAACGCTGGGCGATACTTTGTCCACTCAAT
modifications: none; 5' end of flap not phosphorylated

What was measured:
DrLigA = DrLigA (Deinococcus radiodurans, UniProt Q9RSQ5 1-700); assay: EMSA; 5 mM MgSO4, 5 mM MnSO4, 300 µM NAD+; 100 nM DNA, tight at 10-fold protein; 20 mM Bis-Tris pH 6.0, 5 mM MgSO4, 5 mM MnSO4, 300 µM NAD+, 25% glycerol; 100 nM DNA; 15 min at room temperature; 6% PAGE, 1x TBE, 4 °C
DrLigAΔBRCT = DrLigAΔBRCT (Deinococcus radiodurans, UniProt Q9RSQ5 1-600); assay: EMSA; 5 mM MgSO4, 5 mM MnSO4, 300 µM NAD+; no complex up to 1:10 DNA:protein (100 nM DNA); 20 mM Bis-Tris pH 6.0, 5 mM MgSO4, 5 mM MnSO4, 300 µM NAD+, 25% glycerol; 100 nM DNA; 15 min at room temperature; 6% PAGE, 1x TBE, 4 °C

Binder	binding result (DrLigA)	binding result (DrLigAΔBRCT)
B1	binds	no binding
B2	binds	no binding
B3		no binding
